Data: US20100104555A1 (Scripps Research, published 2010)

B5: maltose binding protein fused-large extracellular loop of CD81 (receptor)
chain: FVNKDQIAKDVKQFYDQALQQAVVDDDANNAKAVVKTFHETLDCCGSSTLTALTTSVLKNNLCPSGSNIISNLFKEDCHQKIDDLFSGK
notes: also called CD81-LEL; MBP-fused CD81-LEL
B8: E2456-645 (other)
chain: LASCRRLTDFAQGWGPISYANGSGLDERPYCWHYPPRPCGIVPAKSVCGPVYCFTPSPVVVGTTDRSGAPTYSWGANDTDVFVLNNTRPPLGNWFGCTWMNSTGFTKVCGAPPCVIGGVGNNTLLCPTDCFRKHPEATYSRCGSGPWITPRCMVDYPYRLWHYPCTINYTIFKVRMYVGGVEHRLEAACNLEDYKDDDDK
B9: E2492-645 (other)
chain: RPCGIVPAKSVCGPVYCFTPSPVVVGTTDRSGAPTYSWGANDTDVFVLNNTRPPLGNWFGCTWMNSTGFTKVCGAPPCVIGGVGNNTLLCPTDCFRKHPEATYSRCGSGPWITPRCMVDYPYRLWHYPCTINYTIFKVRMYVGGVEHRLEAACNLEDYKDDDDK
B11: E2412-611 (other)
chain: QLINTNGSWHINSTALNCNESLNTGWLAGLFYQHKFNSSGCPERLASCRRLTDFAQGWGPISYANGSGLDERPYCWHYPPRPCGIVPAKSVCGPVYCFTPSPVVVGTTDRSGAPTYSWGANDTDVFVLNNTRPPLGNWFGCTWMNSTGFTKVCGAPPCVIGGVGNNTLLCPTDCFRKHPEATYSRCGSGPWITPRCMVDYLEDYKDDDDK

Key:
[1] = biological target: vaccinia-expressed E1E2 (isolate HCV-1) (hepatitis C virus genotype 1a, isolate …, UniProt P26664 192-383; P26664 384-746); assay: ELISA on lectin-captured E1E2; apparent affinity = half-maximal binding
[2] = biological target: B5; assay: capture ELISA, coated CD81-LEL captures Flag-tagged E2 mutant
E1E2 of HCV isolate H77 [3] = biological target: T1, E1E2 of HCV isolate H77 (hepatitis C virus genotype 1a, isolate …, UniProt P27958 192-383; P27958 384-746); assay: ELISA on lectin-captured E1E2; apparent affinity = half-maximal binding
E1E2 of HCV isolate H77 [4] = biological target: T1, E1E2 of HCV isolate H77; assay: cell-based or functional assay
[5] = biological target: B5; assay: capture ELISA
E2412-574 [6] = biological target: T2, E2412-574 (hepatitis C virus isolate H77, UniProt P27958 412-574); assay: capture ELISA, coated CD81-LEL, 293T supernatant
E2412-589 [7] = biological target: T3, E2412-589 (hepatitis C virus isolate H77, UniProt P27958 412-588); assay: capture ELISA, coated CD81-LEL, 293T supernatant
E2412-574 [8] = biological target: T2, E2412-574; assay: capture ELISA, coated mAb, 293T supernatant
E2456-645 = biological target: B8; assay: capture ELISA, coated mAb, 293T supernatant
E2492-645 = biological target: B9; assay: capture ELISA, coated mAb, 293T supernatant
E2412-611 = biological target: B11; assay: capture ELISA, coated mAb, 293T supernatant
E2412-589 [9] = biological target: T3, E2412-589; assay: capture ELISA, coated mAb, 293T supernatant
E1E2 of HCV isolate H77 [10] = biological target: T1, E1E2 of HCV isolate H77; assay: ELISA, mAb inhibits E1E2 (H77) binding to coated CD81-LEL
[11] = biological target: B5; assay: capture ELISA, coated CD81-LEL, 293T supernatant

B1: MAb AR3D (antibody, V domains shown)
VH: LEQSGAEVKKPGSSVKVSCKASGDTFRSYVITWARQAPGQGLEWMGAIIPFFGTTNLAQKFQGRVTITADESTKTVYMDLSSLRSDDTAVYYCAKAGDLSVGGVLAGGVPHLRHFDPWGQGTLVTVSS
VL: ELTQSPGTLSLSPGERATLSCRAGQTVASNSLAWYQHKPGQAPRLLIYGASIRASGIPDRFSGSGSGTDFTLTISRLEPEDFAVYYCQQYGLSPSTFGQGTRLEIKR
notes: also called IgG1 AR3D
EC50 [1]: 2.4 nM

B2: E2ΔN5 (other)
chain: QLINTNGSWHINSTALNCNESLNTGWLAGLFYQHKFNSSGCPERLASCGSSGCWHYPPRPCGIVPAKSVCGPVYCFTPSPVVVGTTDRSGAPTYSWGANDTDVFVLNNTRPPLGNWFGCTWMNSTGFTKVCGAPPCVIGGVGNNTLLCPTDCFRKHPEATYSRCGSGPWITPRCMVDYPYRLWHYPCTINYTIFKVRMYVGGVEHRLEAACNLEDYKDDDDK
binding result [2]: binds

B3: MAb AR2A (antibody, V domains shown)
VH: LEQSGAEMKKPGASLKVSCKTSGYTFDDYGVTWVRQAPGQGLEWMGWISAYSGNTFYARKFQGRVTMTTDPSTRTAYMELRSLRSDDTAVYFCARDRGLAINGVVFPYFGLDVWGQGTTVTVSS
VL: ELTQSPVSLPVTPGEPASISCRSSQSLLHSNGNHYLDWYLQKPGQSPQLLMYLGSNRASGVPDRFSGSGSGTDFTLKISRVEAEDVGVYYCMQGLQTPWTFGQGTKVEIKR
notes: also called IgG1 AR2A
EC50 (E1E2 of HCV isolate H77 [3]): 1.6 nM | EC50 [1]: 3.1 nM | Neutralizing activity (IC50), HCVpp (E1E2 of HCV isolate H77 [4]): 1 µg/mL

B4: E2412-645 (other)
chain: QLINTNGSWHINSTALNCNESLNTGWLAGLFYQHKFNSSGCPERLASCRRLTDFAQGWGPISYANGSGLDERPYCWHYPPRPCGIVPAKSVCGPVYCFTPSPVVVGTTDRSGAPTYSWGANDTDVFVLNNTRPPLGNWFGCTWMNSTGFTKVCGAPPCVIGGVGNNTLLCPTDCFRKHPEATYSRCGSGPWITPRCMVDYPYRLWHYPCTINYTIFKVRMYVGGVEHRLEAACNLEDYKDDDDK
binding result [5]: binds

B5
binding result (E2412-574 [6]): no binding | binding result (E2412-589 [7]): no binding

B6: MAb AR3C (antibody, V domains shown)
VH: LEQSGAEVKKPGSSVKVSCETSGGTLDNYALNWVRQAPGQGLEWIGGVVPLFGTTRNAQKFQGRVTISDDKSTGTGHMELRSLRSEDTAVYYCVRSVTPRYCGGGFCYGEFDYWGQGTLVTVSS
VL: ELTQSPATLSVSPGERATLSCRASQSVSSNLAWYQQKPGQAPRLLIYGASTRATGIPARFSGSGSGTDFTLTVSRLEPEDSAVYFCQQYRSPLTFGGGTKVEIKR
notes: also called IgG1 AR3C
binding result (E2412-574 [8]): no binding | binding result (E2456-645): no binding | binding result (E2492-645): no binding | binding result (E2412-611): no binding | binding result (E2412-589 [9]): no binding | IC50 (E1E2 of HCV isolate H77 [10]): 2 nM | EC50 (E1E2 of HCV isolate H77 [3]): 2.3 nM | EC50 [1]: 1.4 nM | Neutralizing activity (IC50), HCVpp (E1E2 of HCV isolate H77 [4]): 1 µg/mL

B7: MAb AR1A (antibody, V domains shown)
VH: LEQSGAEVKKPGSSVKVSCRASGSPYSSYTITWVRQAPGQGLEWMGGIILMTGKANYAQKFQGRVTITADRATATAYMEMSSLTSDDTAIYYCARDPYVYAGDDVRSLSRWGQGTPVIVSS
VL: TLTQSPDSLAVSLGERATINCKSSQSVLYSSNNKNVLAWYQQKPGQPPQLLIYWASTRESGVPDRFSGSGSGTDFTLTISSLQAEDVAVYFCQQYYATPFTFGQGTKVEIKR
notes: also called IgG1 AR1A
IC50 (E1E2 of HCV isolate H77 [10]): 5.7 nM | EC50 (E1E2 of HCV isolate H77 [3]): 3.8 nM | EC50 [1]: 2.6 nM | Neutralizing activity (IC50), HCVpp (E1E2 of HCV isolate H77 [4]): > 50 µg/mL

B8
binding result [11]: no binding

B9
binding result [11]: no binding

B10: E2412-661 (other)
chain: QLINTNGSWHINSTALNCNESLNTGWLAGLFYQHKFNSSGCPERLASCRRLTDFAQGWGPISYANGSGLDERPYCWHYPPRPCGIVPAKSVCGPVYCFTPSPVVVGTTDRSGAPTYSWGANDTDVFVLNNTRPPLGNWFGCTWMNSTGFTKVCGAPPCVIGGVGNNTLLCPTDCFRKHPEATYSRCGSGPWITPRCMVDYPYRLWHYPCTINYTIFKVRMYVGGVEHRLEAACNWTRGERCDLEDRDRSELEDYKDDDDK
binding result [5]: binds

B11
binding result [11]: no binding

B12: MAb AR1B (antibody, V domains shown)
VH: LESGGGLVQPGGSLRLSCEASGYYFSSFAMSWVRQTPGKGLEWVSSIAGGTLGRTSYRDSVKGRFTISRDNSKNTVFLHMNNLRPEDTAVYYCAKDPLLFAGGPNWFDHWGQGTLVTVSS
VL: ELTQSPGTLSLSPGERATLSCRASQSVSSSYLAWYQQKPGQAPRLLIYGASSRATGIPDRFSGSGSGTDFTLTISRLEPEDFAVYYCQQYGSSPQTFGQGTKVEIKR
notes: also called IgG1 AR1B
EC50 (E1E2 of HCV isolate H77 [3]): 0.6 nM | EC50 [1]: 0.4 nM | Neutralizing activity (IC50), HCVpp (E1E2 of HCV isolate H77 [4]): > 50 µg/mL

B13: MAb AR3B (antibody, V domains shown)
VH: LEQSGPEVKKPGSSVKVSCKDSGDTFNEPVTWVRQAPGQGLEWIGGIIPAFGVTKYAQKFQGRVIISADASTATAYLELSSLRSEDTAVYYCAKVGLRGIVMVGGLAMNWLDPWGQGTQVTVSS
VL: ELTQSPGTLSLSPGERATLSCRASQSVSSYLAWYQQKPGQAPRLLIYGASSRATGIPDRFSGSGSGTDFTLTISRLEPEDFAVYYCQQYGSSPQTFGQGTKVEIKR
notes: also called IgG1 AR3B
EC50 [1]: 2 nM

B14: E2ΔN5N9 (other)
chain: QLINTNGSWHINSTALNCNESLNTGWLAGLFYQHKFNSSGCPERLASCGSSGCWHYPPRPCGIVPAKSVCGPVYCFTPSPVVVGTTDRSGAPTYSWGANDTDVFVLNNTRPPLGNWFGCTWMNSTGFTKVCGAPPCGSSGCPTDCFRKHPEATYSRCGSGPWITPRCMVDYPYRLWHYPCTINYTIFKVRMYVGGVEHRLEAACNLEDYKDDDDK
binding result [2]: binds

B15: E2ΔTM (other)
chain: ETHVTGGNAGRTTAGLVGLLTPGAKQNIQLINTNGSWHINSTALNCNESLNTGWLAGLFYQHKFNSSGCPERLASCRRLTDFAQGWGPISYANGSGLDERPYCWHYPPRPCGIVPAKSVCGPVYCFTPSPVVVGTTDRSGAPTYSWGANDTDVFVLNNTRPPLGNWFGCTWMNSTGFTKVCGAPPCVIGGVGNNTLLCPTDCFRKHPEATYSRCGSGPWITPRCMVDYPYRLWHYPCTINYTIFKVRMYVGGVEHRLEAACNWTRGERCDLEDRDRSELSPLLLSTTQWQVLPCSFTTLPALSTGLIHLHQNIVDVQYLYGVGSSIASWAIKWELEDYKDDDDK
binding result [5]: binds

B16: E2ΔN9 (other)
chain: QLINTNGSWHINSTALNCNESLNTGWLAGLFYQHKFNSSGCPERLASCRRLTDFAQGWGPISYANGSGLDERPYCWHYPPRPCGIVPAKSVCGPVYCFTPSPVVVGTTDRSGAPTYSWGANDTDVFVLNNTRPPLGNWFGCTWMNSTGFTKVCGAPPCGSSGCPTDCFRKHPEATYSRCGSGPWITPRCMVDYPYRLWHYPCTINYTIFKVRMYVGGVEHRLEAACNLEDYKDDDDK
binding result [2]: binds
